How the values were obtained:
[1] = target: human complement component C1q (human) (UniProt P02745); assay: FACS, C1q on antibody-opsonized Raji cells, Exp. 3
[2] = target: human complement component C1q (human) (UniProt P02745); assay: FACS, C1q on antibody-opsonized Daudi cells, Exp. 2
[3] = target: human complement component C1q (human) (UniProt P02745); assay: FACS, C1q on antibody-opsonized Raji cells, Exp. 1
[4] = target: human complement component C1q (human) (UniProt P02745); assay: FACS, C1q on antibody-opsonized Daudi cells, average
[5] = target: human complement component C1q (human) (UniProt P02745); assay: FACS, C1q on antibody-opsonized Daudi cells, Exp. 3
[6] = target: human complement component C1q (human) (UniProt P02745); assay: C1q ELISA, antibody coated in dilution series, 3% pooled human serum
[7] = target: human complement component C1q (human) (UniProt P02745); assay: FACS, C1q on antibody-opsonized Raji cells, average
[8] = target: human complement component C1q (human) (UniProt P02745); assay: FACS, C1q on antibody-opsonized Raji cells, Exp. 2
[9] = target: human complement component C1q (human) (UniProt P02745); assay: FACS, C1q on antibody-opsonized Daudi cells, ranking table
[10] = target: human complement component C1q (human) (UniProt P02745); assay: FACS, C1q on antibody-opsonized Daudi cells, Exp. 4
[11] = target: human complement component C1q (human) (UniProt P02745); assay: FACS, C1q on antibody-opsonized Daudi cells, Exp. 1
[12] = target: human complement component C1q (human) (UniProt P02745); assay: cell-based or functional assay
[13] = target: mouse FcRn, biotinylated extracellular domain (FcRnECDHis-B2M-BIO) (mouse) (UniProt Q61559); assay: ELISA on coated mouse FcRn at pH 6.0, apparent affinity
Sequence of mouse FcRn, biotinylated extracellular domain (FcRnECDHis-B2M-BIO) (mouse) (Q61559 22-297): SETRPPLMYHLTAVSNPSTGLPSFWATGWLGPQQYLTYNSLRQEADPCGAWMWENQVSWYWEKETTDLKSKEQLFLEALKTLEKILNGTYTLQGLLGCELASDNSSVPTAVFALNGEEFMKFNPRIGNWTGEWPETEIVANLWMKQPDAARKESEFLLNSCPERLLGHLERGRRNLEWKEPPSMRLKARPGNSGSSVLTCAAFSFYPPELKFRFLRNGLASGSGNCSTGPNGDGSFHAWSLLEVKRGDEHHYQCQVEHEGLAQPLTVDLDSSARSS

[14] = target: human complement component C1q (human) (UniProt P02745); assay: FACS, C1q on antibody-opsonized Daudi cells, Exp. 7
[15] = target: human complement component C1q (human) (UniProt P02745); assay: FACS, C1q on antibody-opsonized Daudi cells, Exp. 10
[16] = target: human complement component C1q (human) (UniProt P02745); assay: FACS, C1q on antibody-opsonized Daudi cells, Exp. 5
[17] = target: human complement component C1q (human) (UniProt P02745); assay: FACS, C1q on antibody-opsonized Daudi cells, Exp. 11
[18] = target: human complement component C1q (human) (UniProt P02745); assay: FACS, C1q on antibody-opsonized Daudi cells, Exp. 6
[19] = target: human complement component C1q (human) (UniProt P02745); assay: FACS, C1q on antibody-opsonized Daudi cells, Exp. 8
[20] = target: human complement component C1q (human) (UniProt P02745); assay: FACS, C1q on antibody-opsonized Daudi cells, Exp. 9
[21] = target: human complement component C1q (human) (UniProt P02745); assay: FACS, C1q on antibody-opsonized Daudi cells, ranking table; no reliable fit

Sequence of human complement component C1q (human) (P02745 23-245 limits assumed, chain 1 of 3): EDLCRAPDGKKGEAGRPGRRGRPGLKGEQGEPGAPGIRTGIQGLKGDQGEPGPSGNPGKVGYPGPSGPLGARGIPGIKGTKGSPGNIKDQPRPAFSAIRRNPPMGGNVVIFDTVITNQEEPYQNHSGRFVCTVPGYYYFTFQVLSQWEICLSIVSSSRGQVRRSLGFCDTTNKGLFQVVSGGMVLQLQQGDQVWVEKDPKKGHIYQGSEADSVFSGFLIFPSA
Sequence of human complement component C1q (human) (P02746 28-253 limits assumed, chain 2 of 3, further chain): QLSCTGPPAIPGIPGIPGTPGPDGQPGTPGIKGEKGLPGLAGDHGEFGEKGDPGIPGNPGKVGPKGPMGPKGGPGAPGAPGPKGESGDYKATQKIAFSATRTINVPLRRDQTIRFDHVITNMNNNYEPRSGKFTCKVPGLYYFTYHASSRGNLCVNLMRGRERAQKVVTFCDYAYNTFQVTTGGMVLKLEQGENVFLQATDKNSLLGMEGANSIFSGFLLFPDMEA
Sequence of human complement component C1q (human) (P02747 29-245 limits assumed, chain 3 of 3, further chain): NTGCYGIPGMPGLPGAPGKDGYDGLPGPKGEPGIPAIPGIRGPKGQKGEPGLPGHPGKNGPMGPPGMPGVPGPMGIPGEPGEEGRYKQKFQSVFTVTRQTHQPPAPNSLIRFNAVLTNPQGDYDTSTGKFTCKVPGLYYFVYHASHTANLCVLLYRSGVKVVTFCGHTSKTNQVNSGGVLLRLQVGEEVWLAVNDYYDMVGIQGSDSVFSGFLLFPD

| Substance | Kd [4] | Kd [9] | CH50 (C1q concentration giving 50% lysis), CDC on Raji cells in C1q-depleted serum [12] | EC50 of CDC on Daudi cells, 20% normal human serum [12] | EC50 of CDC on Raji cells, 20% normal human serum [12] | EC50 [13] | other results |
| --- | --- | --- | --- | --- | --- | --- | --- |
| IgG1-7D8-I253Y (antibody) | 41.3 nM | 41.3 nM | 16.1 µg/mL | 1.77 µg/mL | 28.9 µg/mL | – | Kd [1]: 46.2 nM; Kd [2]: 37 nM; Kd [3]: 24.3 nM; Kd [5]: 21.1 nM; EC50 [6]: 2.21 µg/mL; Kd [7]: 38.7 nM; Kd [8]: 45.6 nM; Kd [10]: 48.7 nM; Kd [11]: 58.5 nM |
| IgG1-7D8-Q311A (antibody) | 10.7 nM | 10.7 nM | 0.63 µg/mL | 0.42 µg/mL | 1.72 µg/mL | – | Kd [1]: 12.2 nM; Kd [2]: 13 nM; Kd [3]: 4.1 nM; Kd [8]: 10.1 nM; Kd [11]: 14.3 nM |
| IgG1-7D8-E345R (antibody) | 1.7 nM | 1.7 nM | 0.03 µg/mL | 0.04 µg/mL | 0.16 µg/mL | – | Kd [14]: 0.17 nM; Kd [15]: 2.7 nM |
| IgG1-005-E430F (antibody) | – | – | – | – | – | 0.11 µg/mL | – |
| IgG1-7D8-I253A (antibody) | 21.5 nM | 21.5 nM | 11.2 µg/mL | 0.79 µg/mL | 5.55 µg/mL | – | Kd [1]: 20.1 nM; Kd [2]: 20.4 nM; Kd [5]: 16.7 nM; EC50 [6]: 2.56 µg/mL; Kd [7]: 18.6 nM; Kd [8]: 25.7 nM; Kd [10]: 15.7 nM; Kd [11]: 33 nM |
| IgG1-7D8-Q438D (antibody) | 717 nM | 717 nM | > 30 µg/mL | 2.61 µg/mL | 19.5 µg/mL | – | Kd [16]: 767 nM; Kd [17]: 667 nM |
| IgG1-005-E345R (antibody) | – | – | – | – | – | 0.09 µg/mL | – |
| IgG1-005-S440Y (antibody) | – | – | – | – | – | 0.15 µg/mL | – |
| IgG1-005-E430T (antibody) | – | – | – | – | – | 0.15 µg/mL | – |
| IgG1-7D8-K439E + IgG1-7D8-S440K mix | – | – | 1.33 µg/mL | 0.48 µg/mL | 1.58 µg/mL | – | Kd [18]: 3.6 nM |
| IgG1-7D8-I253D (antibody) | 157 nM | 157 nM | > 30 µg/mL | 3.33 µg/mL | > 30 µg/mL | – | Kd [1]: 85.2 nM; Kd [2]: 176 nM; Kd [3]: 70 nM; EC50 [6]: 3.84 µg/mL; Kd [8]: 172 nM; Kd [10]: 205 nM; Kd [11]: 146 nM |
| IgG1-005-E430G (antibody) | – | – | – | – | – | 0.13 µg/mL | – |
| IgG1-005 (HuMab 005, wild type) (antibody) | – | – | – | – | – | 0.14 µg/mL | – |
| IgG1-005-E430H (antibody) | – | – | – | – | – | 0.11 µg/mL | – |
| IgG1-005-P247G (antibody) | – | – | – | – | – | 0.28 µg/mL | – |
| IgG1-7D8-K322A (antibody) | – | – | > 30 µg/mL | > 30 µg/mL | > 30 µg/mL | – | – |
| IgG1-7D8-H433A (antibody) | 118 nM | 118 nM | > 30 µg/mL | 3.44 µg/mL | 22.6 µg/mL | – | Kd [1]: 84 nM; Kd [2]: 76.1 nM; Kd [3]: 125 nM; Kd [5]: 45.2 nM; EC50 [6]: 3.33 µg/mL; Kd [7]: 97.9 nM; Kd [8]: 85 nM; Kd [10]: 181 nM; Kd [11]: 168 nM |
| IgG1-7D8-K439E/S440K (antibody) | 2.6 nM | 2.6 nM | 0.09 µg/mL | 0.33 µg/mL | 1.34 µg/mL | – | Kd [14]: 1.63 nM; Kd [18]: 4.6 nM; Kd [19]: 1.01 nM; Kd [15]: 2.9 nM |
| IgG1-7D8-H310K (antibody) | 124 nM | 124 nM | > 30 µg/mL | 3.03 µg/mL | 19.3 µg/mL | – | Kd [16]: 32.4 nM; Kd [17]: 216 nM |
| IgG1-7D8-H435A (antibody) | – | – | 0.96 µg/mL | 0.81 µg/mL | 2.22 µg/mL | – | Kd [2]: 10.9 nM; Kd [3]: 5.4 nM; Kd [5]: 5 nM; EC50 [6]: 2.27 µg/mL; Kd [7]: 7.3 nM; Kd [8]: 9.9 nM; Kd [10]: 10.9 nM; Kd [11]: 7.8 nM |
| IgG1-005-K439E (antibody) | – | – | – | – | – | 0.31 µg/mL | – |
| IgG1-7D8 (HuMab-7D8, wild type) (antibody) | – | – | 0.49 µg/mL | 0.48 µg/mL | 1.54 µg/mL | – | Kd [1]: 10.9 nM; Kd [3]: 4.8 nM; EC50 [6]: 2.05 µg/mL; Kd [11]: 7.7 nM; Kd [15]: 11.8 nM; Kd [17]: 13.3 nM |
| IgG1-005-S440K (antibody) | – | – | – | – | – | 0.11 µg/mL | – |
| IgG1-005-E345Q (antibody) | – | – | – | – | – | 0.12 µg/mL | – |

The next lines start with results.

| Kd [4] | Kd [9] | CH50 (C1q concentration giving 50% lysis), CDC on Raji cells in C1q-depleted serum [12] | EC50 of CDC on Daudi cells, 20% normal human serum [12] | EC50 of CDC on Raji cells, 20% normal human serum [12] | EC50 [13] | Substance | other results |
| --- | --- | --- | --- | --- | --- | --- | --- |
| – | – | – | – | – | 0.13 µg/mL | IgG1-005-E345Y (antibody) | – |
| – | – | – | – | – | 0.11 µg/mL | IgG1-005-E345N (antibody) | – |
| 42.6 nM | 42.6 nM | 21.2 µg/mL | 1.77 µg/mL | – | – | IgG1-7D8-N434A (antibody) | Kd [1]: 35.2 nM; Kd [2]: 47.8 nM; Kd [3]: 35.9 nM; Kd [5]: 28.3 nM; EC50 [6]: 2.12 µg/mL; Kd [7]: 44.9 nM; Kd [8]: 46.7 nM; Kd [10]: 48.7 nM; Kd [11]: 36.7 nM |
| 2.3 nM | 2.3 nM | 0.77 µg/mL | 0.76 µg/mL | 2.96 µg/mL | – | IgG1-7D8-E382R (antibody) | Kd [14]: 1.18 nM; Kd [19]: 1.13 nM |
| 361 nM | 361 nM | > 30 µg/mL | 2.34 µg/mL | 21.5 µg/mL | – | IgG1-7D8-K439E (antibody) | Kd [18]: 418 nM; Kd [17]: 304 nM |
| 74 nM | 74 nM | 22.5 µg/mL | 2.12 µg/mL | 17.4 µg/mL | – | IgG1-7D8-G385D (antibody) | Kd [18]: 77 nM; Kd [17]: 71 nM |
| 7.2 nM | – | – | – | – | – | Ofatumumab (antibody) | Kd [20]: 12.5 nM; Kd [18]: 5.4 nM; Kd [19]: 2.7 nM; Kd [15]: 12.8 nM |
| – | – | – | – | – | 0.1 µg/mL | IgG1-005-E345K (antibody) | – |
| – | – | – | – | – | 0.14 µg/mL | IgG1-005-E430S (antibody) | – |
| 5290 nM | – | > 30 µg/mL | 4.77 µg/mL | > 30 µg/mL | – | IgG1-7D8-I253D/H433A (antibody) | Kd [18]: 10300 nM; Kd [21]: 5.29 µM; Kd [17]: 246 nM |
| – | – | 0.24 µg/mL | 0.28 µg/mL | 0.61 µg/mL | – | IgG1-7D8-H435R (antibody) | Kd [2]: 8.7 nM; Kd [5]: 2.6 nM; EC50 [6]: 1.24 µg/mL; Kd [10]: 3 nM |
| 109 nM | 109 nM | > 30 µg/mL | 1.78 µg/mL | 19.5 µg/mL | – | IgG1-7D8-S440K (antibody) | Kd [18]: 170 nM; Kd [17]: 48 nM |
| 468 nM | 468 nM | > 30 µg/mL | 1.88 µg/mL | 16.6 µg/mL | – | IgG1-7D8-Y436D (antibody) | Kd [18]: 431 nM; Kd [17]: 504 nM |
